Source: US20180016339A1 (University of Washington, published 2018)

Biological target: T1, human MICB expressed on cells (TRAMP-MICB) (human, UniProt Q29980 23-383)
T1 construct: also called TC2 derivative TRAMP-MICB
T1 sequence: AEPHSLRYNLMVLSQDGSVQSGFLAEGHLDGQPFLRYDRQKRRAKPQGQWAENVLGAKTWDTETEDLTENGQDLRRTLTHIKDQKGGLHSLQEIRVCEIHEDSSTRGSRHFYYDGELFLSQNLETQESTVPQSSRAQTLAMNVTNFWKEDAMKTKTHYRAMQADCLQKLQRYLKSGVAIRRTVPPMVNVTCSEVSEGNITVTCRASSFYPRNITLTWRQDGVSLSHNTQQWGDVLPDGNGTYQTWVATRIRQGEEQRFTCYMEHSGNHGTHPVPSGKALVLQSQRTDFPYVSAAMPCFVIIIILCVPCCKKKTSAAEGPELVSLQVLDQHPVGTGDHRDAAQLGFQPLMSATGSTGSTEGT
Assay: flow cytometry on TRAMP-MICB cells, 2 ug/ml antibody, PE goat anti-mouse IgG
Method: Cells were analyzed with BD FACSscan. Data were analyzed with CellQuest software.

binding result: binds
B1: monoclonal antibody P2B10G5 (antibody, V domains shown)
VH: EVQLEESGPGLVKPSQSLSLTCTVTGYSITSDYAWNWIRQFPGNKLEWMGYISYSGSTNYNPSLKSRISITRDTSKNQFFLQLNSVITEDTATYYCARGGTYFDYWGQGTTLTVSS
VL: DIVLTQTTSYLSVSLGGRVTIACKASAHINNWLAWYQQKPGNAPRLLISDATSLETGVPSRFSGSGSGKDYTLSITSLQTEDVATYYCQHYWSTPWTFGGGTKLEIKR
notes: Mouse hybridoma antibody, IgG1 kappa, raised against recombinant soluble MIC; also called mAb B10G5; anti-sMIC
